Assay [1] concerns the target Calmodulin, Ca2+-bound (Ca2+-CaM) (UniProt P0DP23). The assay can be described thus: NMR titration; TROSY-HSQC of 2H/15N-labelled Ca2+-CaM titrated with unlabelled apo-Lf (titration data not shown); 20 mM Bis-Tris pH 6.8, 150 mM KCl, 4 mM CaCl2, 37 °C.
Assay [2] has the same target. Nature of the assay: native gel or EMSA; non-denaturing PAGE band shift; increasing amounts of Lf incubated with a constant amount of Ca2+-CaM; running buffer 0.1 mM CaCl2, samples 0.5 mM CaCl2, no urea.
Assay [3] deals with Dansylated calmodulin, Ca2+-bound (Ca2+-dCaM) (UniProt P0DP23). The assay can be described thus: other fluorescence titration; dansyl fluorescence (excitation 340 nm, intensity at 485 nm); ~80 µM Lf titrated into 1.4 µM dansylated CaM; 50 mM Tris pH 7.5, 1 mM CaCl2, 100 mM KCl (also run at 50 and 150 mM KCl); one site model, CaLigator; triplicate.

Regarding “Human lactoferrin, iron-free (apo-Lf) (natural protein)”, the stoichiometry N in assay [1] and in assay [2] was 1 each time. In assay [3], this substance registered a Kd of 3500 nM.
For “Human lactoferrin, iron-saturated (Fe3+-Lf) (natural protein)”, in assay [2], the stoichiometry N came to 1. The substance also registered a Kd in assay [3] of 2100 nM.

These data come from article PMC3516504.
